Assays:
[1] = target: T1, Arabidopsis thaliana NDPK2 C-terminal deletion mutant R230Stop (80-229aa), SEQ ID NO: 2 (Arabidopsis thaliana, UniProt O64903); assay: Km of NDPK2 mutant R230Stop for nucleotides (γ-phosphate exchange activity assay, LDH-PK-coupled); details: read-out: Km (ATP); dCDP as acceptor
T1 sequence (O64903 80-229): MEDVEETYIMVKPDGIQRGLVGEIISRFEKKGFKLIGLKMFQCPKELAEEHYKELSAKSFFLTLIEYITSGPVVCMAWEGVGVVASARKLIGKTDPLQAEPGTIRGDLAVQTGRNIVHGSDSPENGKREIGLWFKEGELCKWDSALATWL
Method: (§1) In studying the phytochrome binding site in NDPK2, NDPK2 mutants, including the C-terminal deletion mutants, kinase site mutant H197C, and Kpn loop mutant P175S, were made and tested in the binding assays with the Pfr form of native oat phyA (FIG. 2A). […] To investigate the mechanism of hyperactivity of these NDPK2 mutants, the nucleotide affinity was investigated.
(§2) Full-length Arabidopsis NDPK2 was prepared as previously described (Im et al., 2004). The C-terminal deletion mutants of NDPK2 were prepared by polymerase chain reactions using following primers: R230Stop (80-229aa) with 3′ primer: 5′-[…]-[…]-3′ (SmaI) (SEQ ID NO: 8); L225Stop (80-224aa) with 3′ primer: 5′-[…]-[…]

[2] = target: Arabidopsis thaliana NDPK2 C-terminal deletion mutant L225Stop (80-224aa), SEQ ID NO: 3 (Arabidopsis thaliana, UniProt O64903); details: read-out: Km (ATP); dCDP as acceptor
Method: as §1, §2

[3] = target: T2, purified native oat phytochrome A, Pfr form, P06593
T2 chain: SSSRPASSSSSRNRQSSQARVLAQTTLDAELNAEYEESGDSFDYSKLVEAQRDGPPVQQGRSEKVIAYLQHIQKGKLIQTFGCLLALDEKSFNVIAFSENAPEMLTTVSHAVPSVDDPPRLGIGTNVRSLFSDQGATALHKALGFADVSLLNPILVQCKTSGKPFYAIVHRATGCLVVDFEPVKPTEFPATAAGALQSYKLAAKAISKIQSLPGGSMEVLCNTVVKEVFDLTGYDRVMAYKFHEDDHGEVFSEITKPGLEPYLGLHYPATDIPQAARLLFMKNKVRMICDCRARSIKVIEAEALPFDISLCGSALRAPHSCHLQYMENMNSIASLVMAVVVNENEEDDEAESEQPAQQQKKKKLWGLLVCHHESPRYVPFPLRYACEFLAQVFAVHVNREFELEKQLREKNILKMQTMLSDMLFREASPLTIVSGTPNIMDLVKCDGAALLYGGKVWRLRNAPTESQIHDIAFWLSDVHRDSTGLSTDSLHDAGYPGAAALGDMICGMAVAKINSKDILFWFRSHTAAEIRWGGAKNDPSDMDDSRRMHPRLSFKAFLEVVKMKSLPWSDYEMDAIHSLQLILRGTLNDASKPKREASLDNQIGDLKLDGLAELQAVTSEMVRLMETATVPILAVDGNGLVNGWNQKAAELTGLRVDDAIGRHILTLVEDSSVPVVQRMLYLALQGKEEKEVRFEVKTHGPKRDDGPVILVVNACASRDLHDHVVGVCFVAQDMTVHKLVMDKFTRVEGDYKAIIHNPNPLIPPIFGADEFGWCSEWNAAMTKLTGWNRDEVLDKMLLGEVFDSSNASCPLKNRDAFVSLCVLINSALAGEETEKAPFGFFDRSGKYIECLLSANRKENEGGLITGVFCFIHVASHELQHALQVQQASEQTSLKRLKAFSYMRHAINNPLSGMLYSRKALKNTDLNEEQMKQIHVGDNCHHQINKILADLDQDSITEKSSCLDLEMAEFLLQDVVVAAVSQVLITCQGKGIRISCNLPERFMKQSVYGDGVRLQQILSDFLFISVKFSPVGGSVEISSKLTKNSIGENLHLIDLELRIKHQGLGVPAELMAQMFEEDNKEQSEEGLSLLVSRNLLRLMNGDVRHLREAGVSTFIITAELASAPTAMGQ

[4] = substrate: Nc1nc2c(ncn2[C@@H]2O[C@H](COP(=O)(O)OP(=O)(O)O)[C@@H](O)[C@H]2O)c(=O)[nH]1; assay: purified protein, by the assay type; details: other: ATP as donor; 37.0 °C
[5] = substrate: Nc1ncnc2c1ncn2[C@@H]1O[C@H](COP(=O)(O)OP(=O)(O)OP(=O)(O)O)[C@@H](O)[C@H]1O; assay: Km of NDPK2 for nucleotides (γ-phosphate exchange activity assay, LDH-PK-coupled); format: biochemical, Arabidopsis thaliana; details: other: dCDP as acceptor; 37.0 °C
Method: NDPK proteins with a cleavable GST tag were expressed in Escherichia coli strain BL21 (DE3). The bacterial cells were induced for 4 h with 1 mM isopropyl β-D-thiogalactopyranoside (IPTG) at 310 K and then harvested by centrifugation at 4,500×g for 20 min. The cells were then resuspended in lysis buffer (1× PBS, phosphate-buffered saline) and lysed by sonication, after which the lysate was centrifuged at 16,000×g for 30 min. The resultant supernatant was applied to a glutathione-sepharose 4B affinity column pre-equilibrated with lysis buffer, after which the column was washed with ten bed volumes of lysis buffer. The GST fusion protein bound to the column was eluted with a buffer of 10 mM glutathione and 50 mM Tris-HCl (pH 8.0). GST Tags were cleaved from NDPKs by treatment with thrombin for 2 days at room temperature. The samples were then purified by size exclusion chromatography using a Superdex 200 column (Pharmacia Biotech) pre-equilibrated with a buffer of 50 mM NaCl and 10 mM Tris-HCl (pH 8.0), after which the fractions containing NDPKs were collected. […]
NDPK2 γ-phosphate exchange activity was measured as previously described (20) with minor modifications. […] NDPK2 activity was measured by monitoring the LDH-PK-coupled NADH decrease at 340 nm. […]

[6] = target: T3, purified native oat phytochrome A, Pfr form (oat, UniProt P06593 2-1129); assay: in vitro immunoprecipitation with native oat phyA, western blot
T3 construct: also called phyA; Pfr phytochrome
T3 sequence (looked up): T2 chain
Source text: In studying the phytochrome binding site in NDPK2, NDPK2 mutants, including the C-terminal deletion mutants, kinase site mutant H197C, and Kpn loop mutant P175S, were made and tested in the binding assays with the Pfr form of native oat phyA (FIG. 2A). […] Moreover, no interactions between Pfr phytochrome and mutants N204Stop and S199Stop were observed. […] Results from the γ-phosphate exchange activity assay were consistent with the in vitro binding assay. […] Thus, R230Stop and L225Stop were hyperactive NDPK2 that binds normally to its upstream signaling molecule, phytochrome. To investigate the mechanism of hyperactivity of these NDPK2 mutants, the nucleotide affinity was investigated. By using two natural nucleotide substrates of NDPK2, ATP and GDP, the Kₘ values were measured to examine the relationship between the nucleotide affinity and NDPK activity in NDPK2 hyperactive mutants (Table 1). […] Therefore, it appears that a higher nucleotide affinity corresponds to a higher NDPK activity.
The in vitro binding assays of phytochrome and NDPK2 were performed by incubating 10 μg of phytochrome and 20 μg of NDPK2 in TBS buffer (50 mM Tris-HCl (pH 7.5), 150 mM NaCl), containing 5 mM MgCl₂, 2 mM dCDP, 0.1% NP40 and protease inhibitors, at 4° C. for 30 min. […]

Nc1ncnc2c1ncn2[C@@H]1O[C@H](COP(=O)(O)OP(=O)(O)OP(=O)(O)O)[C@@H](O)[C@H]1O [ATP]
Km [1]: 211 µM
Km [2]: 213 µM

B1: NDPK2 C-terminal deletion mutant R230Stop (protein)
chain: T1 sequence (O64903 80-229)
stimulation by Pfr phytochrome in the γ-phosphate exchange activity assay [3]: Mutants R230Stop and L225Stop were stimulated by Pfr phytochrome significantly
Km [4]: 0.203 mM mM

B2: NDPK2 C-terminal deletion mutant K214Stop (protein)
chain: MEDVEETYIMVKPDGIQRGLVGEIISRFEKKGFKLIGLKMFQCPKELAEEHYKELSAKSFFLTLIEYITSGPVVCMAWEGVGVVASARKLIGKTDPLQAEPGTIRGDLAVQTGRNIVHGSDSPENGKREIGLWF
stimulation by Pfr phytochrome in the γ-phosphate exchange activity assay [3]: mutants K214Stop, N204Stop, and S199Stop were not stimulated under the identical conditions

B3: Arabidopsis thaliana nucleoside diphosphate kinase 2 (NDPK2), wild type, SEQ ID NO: 1 (Arabidopsis thaliana) (protein)
chain: ASSSAESGIFLPHLVASMEDVEETYIMVKPDGIQRGLVGEIISRFEKKGFKLIGLKMFQCPKELAEEHYKELSAKSFFLTLIEYITSGPVVCMAWEGVGVVASARKLIGKTDPLQAEPGTIRGDLAVQTGRNIVHGSDSPENGKREIGLWFKEGELCKWDSALATWLRE
notes: hexamer
Km [5]: 0.286 mM mM
Km [4]: 0.231 mM mM

B4: NDPK2 C-terminal deletion mutant L225Stop (protein)
chain: MEDVEETYIMVKPDGIQRGLVGEIISRFEKKGFKLIGLKMFQCPKELAEEHYKELSAKSFFLTLIEYITSGPVVCMAWEGVGVVASARKLIGKTDPLQAEPGTIRGDLAVQTGRNIVHGSDSPENGKREIGLWFKEGELCKWDSA
stimulation by Pfr phytochrome in the γ-phosphate exchange activity assay [3]: Mutants R230Stop and L225Stop were stimulated by Pfr phytochrome significantly
Km [4]: 0.191 mM mM

B5: NDPK2 C-terminal deletion mutant N204Stop (enzyme)
chain: MEDVEETYIMVKPDGIQRGLVGEIISRFEKKGFKLIGLKMFQCPKELAEEHYKELSAKSFFLTLIEYITSGPVVCMAWEGVGVVASARKLIGKTDPLQAEPGTIRGDLAVQTGRNIVHGSDSPE
notes: also called N204Stop (80-203aa)
stimulation by Pfr phytochrome in the γ-phosphate exchange activity assay [3]: mutants K214Stop, N204Stop, and S199Stop were not stimulated under the identical conditions
binding result [6]: no binding

B6: NDPK2 C-terminal deletion mutant S199Stop (enzyme)
chain: MEDVEETYIMVKPDGIQRGLVGEIISRFEKKGFKLIGLKMFQCPKELAEEHYKELSAKSFFLTLIEYITSGPVVCMAWEGVGVVASARKLIGKTDPLQAEPGTIRGDLAVQTGRNIVHG
notes: also called S199Stop (80-198aa)
stimulation by Pfr phytochrome in the γ-phosphate exchange activity assay [3]: mutants K214Stop, N204Stop, and S199Stop were not stimulated under the identical conditions
binding result [6]: no binding
